Values belong to the binder of their own block, whether it stands above or below them.
What was measured:
[1] = target: T1, recombinant HMG1 purified from E. coli as a calmodulin binding protein (CBP) fusion protein (human, UniProt A9RA84 1-215 (Papio anubis entry)); test: BIAcore, mAb immobilized, HMG1 injected, steady-state model
T1 construct: also called rHMG1; rHMGB1
T1 sequence: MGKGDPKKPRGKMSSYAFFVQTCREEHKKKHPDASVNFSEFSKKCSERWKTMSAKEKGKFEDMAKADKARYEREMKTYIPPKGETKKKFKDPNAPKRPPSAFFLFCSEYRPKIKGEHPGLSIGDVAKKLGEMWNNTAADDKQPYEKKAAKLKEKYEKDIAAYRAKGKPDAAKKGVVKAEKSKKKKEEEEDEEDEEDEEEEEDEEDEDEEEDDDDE
Method: HMG1 Binding Affinity via BIAcore Analysis: All experiments were performed on a BIAcore 3000 instrument (BIAcore, Inc., Piscataway, N.J.). Briefly, each mAb was immobilized to a CM5 sensor chip using a standard amino coupling chemistry. Separately a reference (control) flow cell was also prepared. Two-fold, serial dilutions of HMG1 in instrument buffer were sequentially injected at a slow flow rate over the individual mAb and reference flow-cell surfaces. Following the binding and dissociation of HMG1, the mAbs surfaces were regenerated with a brief pulse of 1M NaCl-50 mM NaOH. At the end of each experiment, the binding curves were evaluated using a steady-state model available through the BIA evaluation software supplied by BIAcore, Inc. (Piscataway, N.J.).

[2] = target: T1, recombinant HMG1 purified from E. coli …; test: cell-based or functional assay
[3] = target: T2, HMG1 B Box peptide amino acids 91-169; test: ELISA, wells coated with HMG1 B Box peptide 91-169 at 10 ug/ml
T2 construct: also called HMG1 peptide 91-169
T2 peptide: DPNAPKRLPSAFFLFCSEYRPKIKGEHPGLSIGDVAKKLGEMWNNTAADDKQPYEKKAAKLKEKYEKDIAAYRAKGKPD
Method: (§1) The plate was then blocked with 4% milk powder dissolved in PBS at 37° C. for 1 hour. The blocking solution was removed and replaced with human anti-HMG1 antibodies at various concentrations (see FIGS. 5A-B). […] HRP activity was detected with Sureblue HRP substrate (KPL). Plates were read at 450 nm using a Kinetic Microplate Reader (Molecular Devices). […] After washing and blocking with 1% BSA in PBS, the biotinylated peptides were individually added into the avidin coated wells and incubated for 30 min at room temperature. The serial diluted antibody G4, S16 and S6 at the initial concentration at 10 μg/ml were then transferred into the wells followed by adding mouse anti human IgG-HRP conjugate (Pierce). Detection was accomplished by adding 50 μl of tetramethylbenzidine (TMB) substrate (KPL) and the absorbance was read at […].

[4] = target: T3, HMG1 purified from bovine (calf) thymus (bovine, UniProt P10103 2-215); test: ELISA, wells coated with calf thymus HMGB1 at 5 ug/mL, antibody at 10 ug/mL, anti-human kappa/lambda-HRP, OD 490
T3 construct: also called Calf thymus HMGB1; thymus HMG1
T3 sequence (looked up): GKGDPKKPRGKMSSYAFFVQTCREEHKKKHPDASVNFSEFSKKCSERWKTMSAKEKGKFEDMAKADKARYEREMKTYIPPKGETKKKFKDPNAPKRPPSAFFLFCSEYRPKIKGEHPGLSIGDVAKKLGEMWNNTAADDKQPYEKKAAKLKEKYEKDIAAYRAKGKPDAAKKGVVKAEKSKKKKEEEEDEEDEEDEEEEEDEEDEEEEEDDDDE
Method: (§2) Binding to HMG1 vs. HMG2: Ultra high-binding ELISA plates (ThermoLab systems, #3855) were coated with either 5 ug/mL of Calf thymus HMGB1 or HMBG2 diluted in 10 mM Phosphate buffered saline (PBS), pH 7.2 and incubate overnight at 4 degrees. The plates were washed twice with Ca and Mg free PBS and 100 microliters of anti-HMGB1 antibody diluted in 10 mM PBS, pH 7.2+1% bovine serum albumin (BSA) to a final concentration of 10 ug/mL was added to each well and the plates were incubated 1 hour at room temperature. The wells were washed three times with 100 μl of PBS, pH 7.2. HRP labeled goat-anti-human IgG Kappa-chain (KPL, #14-10-10) and goat-anti-human IgG Lambda-chain (KPL, #14-10-11) were diluted in 10 mM PBS+1% BSA 1:1000 and 100 μl were added to each well and incubated for 1 hour at room temperature. The wells were then washed three times with 100 μl of PBS, pH 7.2. OPD substrate (Pierce chemical company, #34006) was prepared following the manufacturers instructions and 100 μl of prepared substrate was added to each well and the plates incubated at room temperature in the dark for 20-30 minutes. The reaction was stopped with the addition of 100 μl of 2M H₂SO₄, and the plates read on a plate reader at a wavelength of 490 nm.

HMG2 = target: T4, HMG2 (UniProt P40673 2-209, limits assumed); test: ELISA, wells coated with HMGB2 at 5 ug/mL, OD 490
T4 construct: also called HMGB2; HMBG2
T4 sequence (looked up): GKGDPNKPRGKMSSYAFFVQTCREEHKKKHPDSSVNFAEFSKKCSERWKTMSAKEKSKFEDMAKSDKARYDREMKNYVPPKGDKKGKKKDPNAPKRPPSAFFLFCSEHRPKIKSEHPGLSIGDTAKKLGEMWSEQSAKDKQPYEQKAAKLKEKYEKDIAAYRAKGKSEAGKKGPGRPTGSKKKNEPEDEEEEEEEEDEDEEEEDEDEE
Method: as §2

[5] = target: T5, HMG1 B Box peptide amino acids 150-183; test: ELISA, wells coated with HMG1 B Box peptide 150-183 at 10 ug/ml
T5 peptide: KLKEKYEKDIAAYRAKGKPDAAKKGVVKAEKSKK
Method: as §1

Kd [1]: 205 nM | IC50, inhibition of rHMG1 stimulated IL-1β release from human PBMC [2]: 0.0678 µg/mL | IC50, inhibition of rHMG1 stimulated IL-6 release from human PBMC [2]: 0.191 nM | IC50, inhibition of rHMG1 stimulated TNF-α release from human PBMC [2]: 0.0662 µg/mL | binding result [3]: no binding (tested: 10 ug/ml (log 1.00)) | binding result [4]: binds | binding result [5]: no binding (tested: 10 ug/ml (log 1.00))
B1: anti-HMG1 antibody S14 (antibody, V domains shown)
VH: EVQLLESGGGLVQPGGSLRLSCAASGFTFSWYETGWVRQAPGKGLEWVSGISPSGGYTQYADSVKGRFTISRDNSKNTLYLQMNSLRAEDTAVYYCARSGVGATKIFDYWGQGTLVTVSS
VL: DIQMTQSPSSLSASVGDRVTIICRANERINTYLNWYQQKPGKAPKLLISGTSSLESGVPSRFSGSGSGTEFTLSISSLQPEDFASYYCQQSYSSPYTFGQGTNLEIR
binding result (HMG2): no binding (tested: 10 ug/mL (not on the sheet))

Kd [1]: 242 nM | IC50, inhibition of rHMG1 stimulated IL-6 release from human PBMC [2]: 0.564 nM | binding result [4]: binds | binding result [5]: no binding (tested: 10 ug/ml (log 1.00))
B2: anti-HMG1 antibody G35 (antibody, V domains shown)
VH: EVQLLESGGGLVQPGGSLRLSCAASGFTFSWYKMVWVRQAPGKGLEWVSSIVPSGGITIYADSVKGRFTISRDNSKNTLYLQMNSLRAEDTAVYYCARVQQWLGRPYFDYWGQGTLVTVSS
VL: DIQMTQSPLSLPVTPGEPASISCRSSQSLLHGNGYNYLDWYLQRPGQSPQLLIYSGSNRASGVPDRFSGSGSGTDFTLKISRVEAEDVGVYYCMQSLQSRTFGQGTKVEIK
binding result (HMG2): no binding (tested: 10 ug/mL (not on the sheet))

Kd [1]: 67 nM | IC50, inhibition of rHMG1 stimulated IL-6 release from human PBMC [2]: 0.858 nM | binding result [3]: no binding (tested: 10 ug/ml (log 1.00)) | binding result [4]: binds | binding result [5]: no binding (tested: 10 ug/ml (log 1.00))
B3: anti-HMG1 antibody G34 (antibody, V domains shown)
VH: EVQLLESGGGLVQPGGSLRLSCAASGFTFSHYMMGWVRQAPGKGLEWVSRISPSGGGTVYADSVKGRFTISRDNSKNTLYLQMNSLRAEDTAVYYCARGGNWNYISYYYYYLDVWGKGTTVTVSS
VL: DIQMTQSPSSLSASVGDRVAITCRASQSIDTYLNWYQQKPGKAPKLLIYAASKLEDGVPSRFSGSGTGTDFTLTIRSLQPEDFASYFCQQSYSSPGITFGPGTKVEIK
binding result (HMG2): no binding (tested: 10 ug/mL (not on the sheet))

Kd [1]: 73 nM | IC50, inhibition of rHMG1 stimulated IL-1β release from human PBMC [2]: 5.91 µg/mL | IC50, inhibition of rHMG1 stimulated IL-6 release from human PBMC [2]: 1.12 nM | IC50, inhibition of rHMG1 stimulated IL-12 release from human PBMC [2]: 2.79 µg/mL | IC50, inhibition of rHMG1 stimulated TNF-α release from human PBMC [2]: 0.796 µg/mL | binding result [3]: no binding (tested: 10 ug/ml (log 1.00)) | binding result [4]: binds | binding result [5]: no binding (tested: 10 ug/ml (log 1.00))
B4: anti-HMG1 antibody G12 (antibody, V domains shown)
VH: EVQLLESGGGLVQPGGSLRLSCAASGFTFSYYMMTWVRQAPGKGLEWVSSISPSGGYTIYADSAKGRFTISRDNSKNTLYLQMNSLRAEDTAVYYCARALSTGSFWDYWGQGTLVTVSS
VL: DIQMTQSPGTLSLSPGERATLSCRASESLTSTYVAWYQHKPGQAPRLLIHGGSTRATGIPVRFSGSGSGTDFTLTIATLEPEDFAVYYCQQYGSSPYTFGQGTKLEIK
binding result (HMG2): no binding (tested: 10 ug/mL (not on the sheet))

IC50, inhibition of HMG1 stimulated NO release from macrophages [2]: 20.4 µg/mL | IC50, inhibition of rHMG1 stimulated IL-1β release from human PBMC [2]: 0.4 µg/mL | IC50, inhibition of rHMG1 stimulated IL-6 release from human PBMC [2]: 0.652 nM | IC50, inhibition of rHMG1 stimulated TNF-α release from human PBMC [2]: 0.598 µg/mL | binding result [3]: no binding (tested: 10 ug/ml (log 1.00)) | binding result [4]: binds
B5: anti-HMG1 antibody G20 (antibody, V domains shown)
VH: EVQLLESGGGLVQPGGSLRLSCAASGFTFSWYDMFWVRQAPGKGLEWVSWISPSGGYTKYADSVKGRFTISRDNSKNTLYLQMNSLRAEDTAMYYCARSGLDYYDSSGYLDAFDIWGQGTMVTVSS
VL: DIQMTQSPSSVSASVGDRVTITCRASQDVSIWLAWYQQKPGKAPKLLIFGASRLQSGVPSRFSGSRSGADFTLTIDSVQPEDFASYYCQQADSFPLTFGGGTKVEIK
binding result (HMG2): no binding (tested: 10 ug/mL (not on the sheet))

Kd [1]: 125 nM | IC50, inhibition of rHMG1 stimulated IL-1β release from human PBMC [2]: 0.211 µg/mL | IC50, inhibition of rHMG1 stimulated IL-6 release from human PBMC [2]: 0.246 nM | IC50, inhibition of rHMG1 stimulated TNF-α release from human PBMC [2]: 0.248 µg/mL | binding result [3]: no binding (tested: 10 ug/ml (log 1.00)) | binding result [4]: binds | binding result [5]: no binding (tested: 10 ug/ml (log 1.00))
B6: anti-HMG1 antibody G9 (antibody, V domains shown)
VH: EVQLLESGGGLVQPGGSLRLSCAASGFTFSSYDMFWVRQAPGKGLEWVSRISPSGGYTYYADSVKGRFTISRDNSKNTLYLQMNSLRAEDTAVYYCARLRYFDSRGYAFDIWGQGTMVTVSS
VL: DIQMTQSPGTLSLSPGERATLSCRASQSVRSSYLAWYQQKPGQAPRLLIYGASTRATGIPDRFSGSGSGTDFTLTISRLEPEDFAVYYCQQYGTSRWTFGQGTKVEIK
binding result (HMG2): no binding (tested: 10 ug/mL (not on the sheet))

Source: patent publication US20080311122A1 (AstraZeneca / MedImmune, published 2008)
